Measured values published in publication PMC11760725.

Tests used:
[1] = biological target: T1, Reb1 (Saccharomyces cerevisiae) (UniProt P21538); experiment: ensemble FRET
T1 sequence: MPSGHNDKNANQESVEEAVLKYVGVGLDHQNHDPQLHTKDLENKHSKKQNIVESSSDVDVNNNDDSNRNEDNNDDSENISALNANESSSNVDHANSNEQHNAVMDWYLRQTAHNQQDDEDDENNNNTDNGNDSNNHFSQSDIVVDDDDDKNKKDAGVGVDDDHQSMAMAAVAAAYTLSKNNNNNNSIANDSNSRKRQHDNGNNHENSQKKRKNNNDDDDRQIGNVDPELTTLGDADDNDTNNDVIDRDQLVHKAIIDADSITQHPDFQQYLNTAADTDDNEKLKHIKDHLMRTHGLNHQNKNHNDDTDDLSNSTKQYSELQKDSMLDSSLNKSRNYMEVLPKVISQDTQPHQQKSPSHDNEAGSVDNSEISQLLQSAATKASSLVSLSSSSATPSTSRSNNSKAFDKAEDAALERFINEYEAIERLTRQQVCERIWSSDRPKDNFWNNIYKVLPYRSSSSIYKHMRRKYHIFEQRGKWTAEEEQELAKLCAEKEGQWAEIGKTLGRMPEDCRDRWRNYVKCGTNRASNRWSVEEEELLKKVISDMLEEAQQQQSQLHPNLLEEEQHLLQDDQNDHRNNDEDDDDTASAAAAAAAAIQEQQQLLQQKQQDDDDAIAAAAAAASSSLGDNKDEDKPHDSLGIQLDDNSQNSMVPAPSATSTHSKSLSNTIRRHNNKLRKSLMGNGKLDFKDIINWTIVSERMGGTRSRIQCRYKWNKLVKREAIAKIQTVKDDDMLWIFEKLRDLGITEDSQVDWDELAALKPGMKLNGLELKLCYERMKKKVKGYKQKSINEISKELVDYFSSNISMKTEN

[2] = biological target: Cbf1 (Saccharomyces cerevisiae) (UniProt P17106); experiment: ensemble FRET
UniProt P17106, sequence (P17106 whole entry): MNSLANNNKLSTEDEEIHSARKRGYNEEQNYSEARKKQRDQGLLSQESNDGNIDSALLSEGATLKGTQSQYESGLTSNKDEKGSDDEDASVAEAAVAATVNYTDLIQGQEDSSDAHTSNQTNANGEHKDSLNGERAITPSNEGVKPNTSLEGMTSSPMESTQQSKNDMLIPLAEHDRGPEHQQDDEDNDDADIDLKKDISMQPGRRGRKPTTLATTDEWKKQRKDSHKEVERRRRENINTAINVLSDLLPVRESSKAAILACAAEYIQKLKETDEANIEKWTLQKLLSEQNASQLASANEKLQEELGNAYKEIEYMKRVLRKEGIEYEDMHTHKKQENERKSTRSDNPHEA

[3] = biological target: Cbf1 (Saccharomyces cerevisiae) (UniProt P17106); experiment: EMSA

Substance: 601 Reb1p8 Cy3-proximal 207 bp nucleosome
- K half [1]: 0.75 nM

Substance: GCTTTGACCGGGTAACACGAACAGAAAGATGGAGGAGACCAATCAGTCAGTGAATCAGATGCTGATGAAGGCTGGGAAGATATTCCTGTCTACGTTAAAGCCTTTGCAGAGTTTGAATCAAAGAAAAGATTACAAAAAATTCGCCGACAGGAAGAAATAAAAAAGAGGACAGCTTTGGTTTGAAGCAAATATATATTATTGAAAAGC (double strand) [YNN1 Reb1p8 Cy3-proximal 207 bp nucleosome]
- K half [1]: 1.5 nM

Substance: GCTTTGAGGTCACGTGACCAACAGAAAGATGGAGGAGACCAATCAGTCAGTGAATCAGATGCTGATGAAGGCTGGGAAGATATTCCTGTCTACGTTAAAGCCTTTGCAGAGTTTGAATCAAAGAAAAGATTACAAAAAATTCGCCGACAGGAAGAAATAAAAAAGAGGACAGCTTTGGTTTGAAGCAAATATATATTATTGAAAAGC (double strand) [YNN1 Cbf1p8 nucleosome]
- K half [2]: 1.5 nM
- K half [3]: 0.8 nM
